# Data reported in article PMC10004559, “Identification of residues involved in allosteric signal transmission from amino acid binding site of pyruvate kinase muscle isoform 2” (PLOS ONE, 2023).
# B1: PKM2 N75L (enzyme)
# chain: not shown
# notes: Pyruvate kinase muscle isoform 2 (PKM2), human, UniProt P14618, with N75L; cloned in pET28a; No tag cleavage is described
# B2: PKM2 N70D (enzyme)
# chain: not shown
# notes: Pyruvate kinase muscle isoform 2 (PKM2), human, UniProt P14618, with N70D; cloned in pET28a; not shown: His6, N-terminal, kept
# B3: PKM2 R106A (enzyme)
# chain: not shown
# notes: Pyruvate kinase muscle isoform 2 (PKM2), human, UniProt P14618, with R106A; cloned in pET28a; No tag cleavage is described
# Biological target: the molecule itself
# Assay: SEC; 0.1 mg/ml enzyme in storage buffer (20-50 mM Tris-HCl pH 7.5, 150 mM KCl, 5% glycerol, 0.5 mM EDTA) with 10 mM THP, incubated 15 min without or with 10 mM Asn/Asp/Val/Cys; Superdex 200 10/300 GL, 0.5 ml/min; self-association, tetramer against dimer/monomer
row,Protein,stoichiometry N
1,B1,4
2,B2,4
3,B3,4
